{
  "source": "the nanobody polyreactivity screen of Harvey et al. (2022)",
  "data": [
    {"assay": "yeast display, Sf9 membrane polyspecificity reagent, FACS + sequencing; frameworks hold sequencing errors", "in_short": "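Galactose induction of a Saccharomyces cerevisiae BJ5465 synthetic nanobody display library ran 36–48 hours. The cells were then stained for 1 hour at 4 °C with 10% biotinylated, detergent-solubilized Sf9 membrane reagent, pulled down on streptavidin microbeads and FACS-sorted into low and high (top ~1%) gates on expression and reagent-binding fluorescence. Labels for polyreactivity follow the gate of origin.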", "values": [
      {"sequence": "QVQLVESGGGLVQAGGSLRLSCAASGSTFDTYAMGWYRQAPGKERELVAAISSGGSTNYADSVKGRFTISRDNAKNTVYLQMNSLKPEDTAVYYCADSYKSVFPVYGTLDEYWGQGTQVTVSS", "polyreactivity (PSR sort gate)": "low polyreactivity"},
      {"sequence": "QVQLVESGGGLVQAGGSLRLSCAASGSTFDVNAMGWYRQAPGKERELVAAISFSGGSTYYADSVKGRFTISRDNAKNTVYLQMNSLKPEDTAVYYCAAEEWRSYYEEYDYWGQGTQVTVSS", "polyreactivity (PSR sort gate)": "low polyreactivity"},
      {"sequence": "QVQLVESGGGLVQAGGSLRLSCAASGSTFDVNAMGWYRQAPGKERELVAAISWNSGSTYYADSVKGRFTISRDNAMITVFLQMNSLKPEDTAVYYCAATYGTGRRSKYGYWGQGSQVTVSS", "polyreactivity (PSR sort gate)": "high polyreactivity"},
      {"sequence": "QVQLVESGGGLVQAGGSLRLSCAASGSTFDVNAMGWYRQAPGKERELVAVITSGGSTNYADSVKGRFTISRDNAKNTVYLQMNRLKPEDTAVYYCAKDSRTLYDYWGQGTQVTVSS", "polyreactivity (PSR sort gate)": "low polyreactivity"},
      {"sequence": "QVQLVESGGGLVQAGGSLRLSCAASGSTFDVYAMGWYRQAPGKERELVAAIRSSGGSTFYADSVKGRFTISRDNAKNIVYLQMNSLKPEDTAVYYCAARSFVVSGYNKYYEYGYWGQGTQVTVSS", "polyreactivity (PSR sort gate)": "low polyreactivity"},
      {"sequence": "QVQLVESGGGLVQAGGSLRLSCAASGSTFDVYAMGWYRQAPGKERELVAAITWDGDRTYYADSVKGRFTISRDNAKNTVYLQMNSLKPEDTAVYYCNVDTYVEYPHDYWGQGTQVTVSS", "polyreactivity (PSR sort gate)": "low polyreactivity"},
      {"sequence": "QVQLVESGGGLVQAGGSLRLSCAASGSTFDWYAMGWYRQAPGKERELVAAISRGSRTYYADSVKGRFTISRDNAKNTVYLQKNSLKPEDTAVYYCARDKPTSYPDYYYWGQGTQVTVSS", "polyreactivity (PSR sort gate)": "high polyreactivity"},
      {"sequence": "QVQLVESGGGLVQAGGSLRLSCAASGSTFDWYAMGWYRQAPGKERELVARIRWSGGSTYYADSVKGRFTISRDNAKNTVYLQMNSLKPEDTAVYYCAARTQTWPQYGYWGQGTQVTVSS", "polyreactivity (PSR sort gate)": "high polyreactivity"},
      {"sequence": "QVQLVESGGGLVQAGGSLRLSCAASGSTFDWYAMGWYRQATGKETELVAAISWSDTSTYYADSVKGRFTISRDNAKNTVYLKMNSLKPEDTAVYYCNDEALYYYDSYDYWGQGTQVTVSS", "polyreactivity (PSR sort gate)": "high polyreactivity"},
      {"sequence": "QVQLVESGGGLVQAGGSLRLSCAASGSTFDYNAMGWYRQAPGKERELVAAITSTGGNTYYADSVKGRFTISRDHAKNTDYLQMNSLKPEDTAVYYCNKDVARYPYGNFDYWGQGTQVTVSS", "polyreactivity (PSR sort gate)": "low polyreactivity"},
      {"sequence": "QVQLVESGGGLVQAGGSLRLSCAASGSTFDYNAMGWYRQAPGKERELVADITGSGASTSYADSVKGRFTISRDNAKNTVYLQMNSLKPEDTAVYFCAADQTPVGQVYYGTLSIRDYWGQGTQVTVSS", "polyreactivity (PSR sort gate)": "low polyreactivity"},
      {"sequence": "QVQLVESGGGLVQAGGSLRLSCAASGSTFDYNAMGWYRQAPGTERELVAAISRGGNTYYADSVKGRFTISRDNAKNTVYLQMNSLKPEDTAVYYCAKDSYGSYRFVRKRQKAYGYWGQGTQVTVSS", "polyreactivity (PSR sort gate)": "low polyreactivity"},
      {"sequence": "QVQLVESGGGLVQAGGSLRLSCAASGSTFDYYAMGWDRQAPGKERELVAAIRWSSGRTYYADSVKGRFTISRDNAKNTVYLQMHSLKPEDTAVYYCASAGHRGQGGPRYNYWGQGTQVTVSS", "polyreactivity (PSR sort gate)": "high polyreactivity"},
      {"sequence": "QVQLVESGGGLVQAGGSLRLSCAASGSTFDYYAMGWYRQAPGKERELVAAISRTGGRTYYADSVKGRFTISRDNAKNTVYLQMNSLKPEDTAVYYCATRNGRQYSVSYRYYYWGQGTQVTVSS", "polyreactivity (PSR sort gate)": "low polyreactivity"},
      {"sequence": "QVQLVESGGGLVQAGGSLRLSCAASGSTFDYYAMGWYRQAPGKERELVATISYSDGTTYYADSVKGRFTISRDNAKNTVYLQMNSLKPEDTAVYYCAADTYVYEEQNVWRMDYWGQGTQVTVSS", "polyreactivity (PSR sort gate)": "low polyreactivity"},
      {"sequence": "QVQLVESGGGLVQAGGSLRLSCAASGSTFDYYAMGWYRQAPGKERELVAVISSSGGSTYYADSVKGRFTISRDNAKNTVYLQMNSLKPEDTAVYYCAALYRNYGSSYAYYYWGQGTQVTVSS", "polyreactivity (PSR sort gate)": "low polyreactivity"},
      {"sequence": "QVQLVESGGGLVQAGGSLRLSCAASGSTFDYYDMGWYRQAPGKERELVATITSGGSTNYADSVKGRFTISRDNAKNTVYLQMNSLKPEDTAVYYCAADIGGDGEGYDYWGQGTQVTVSS", "polyreactivity (PSR sort gate)": "low polyreactivity"},
      {"sequence": "QVQLVESGGGLVQAGGSLRLSCAASGSTFDYYTMGWYRQAPGKERELVAAISYSGSRTYYADSVKGRFTISRDNAKNTVYLQMNSLKPEDTAVYYCAAVYRAKYGYWGQGTQVTVSS", "polyreactivity (PSR sort gate)": "high polyreactivity"},
      {"sequence": "QVQLVESGGGLVQAGGSLRLSCAASGSTFDYYTMGWYRQAPGKERELVAAITSGGSTYYADSVKGRFTISRDNAKNTVFLQMNSLKPEDTAVYYCAAGYIWFRKFQFDYWGQGTQVTVSS", "polyreactivity (PSR sort gate)": "high polyreactivity"},
      {"sequence": "QVQLVESGGGLVQAGGSLRLSCAASGSTFEANAMGRYRQAPGKERELVAVITWTGGSTYYADSVKGRFTISRDNAKNTVYLQMNSLKPEDTAVYYCAADGVVPGRFFWPAHEYDYWGQGTQVTVSS", "polyreactivity (PSR sort gate)": "low polyreactivity"},
      {"sequence": "QVQLVESGGGLVQAGGSLRLSCAASGSTFEANAMGWYRQAPGKERELVAVITWTGGSTYYADSVKGRFTISRDNAKNTVYLQMNSLKPEDTAVYYCAADGVVPGRFFWPAHEYDYWGQGTQVTVSS", "polyreactivity (PSR sort gate)": "low polyreactivity"},
      {"sequence": "QVQLVESGGGLVQAGGSLRLSCAASGSTFEDNAMGWYRQAPGKERELVAAITTGGGSTYYADSVKGRFTISRDNAKNTVYLQMNSLKPEDTAVYYCAVYRYYGFSLWYDYWGQGTLVTVSS", "polyreactivity (PSR sort gate)": "low polyreactivity"},
      {"sequence": "QVQLVESGGGLVQAGGSLRLSCAASGSTFEFNDMGWYRQAPGKERELVASIRHSDGSTYYADSVKGRFTISRDNAKNTVYLQMNSLKPEDTAVYYCNKAFQWSGGQVSYDYWGQGTQVTVSS", "polyreactivity (PSR sort gate)": "low polyreactivity"},
      {"sequence": "QVQLVESGGGLVQAGGSLRLSCAASGSTFEQYAMGWYRQAPGKERELVAAINRGGSTYYADSVKGRFTISRDNAKNTVYLQMKSLKPEDTAVYYCAVYAFVRYRSRYGYWGQGTQVTVSS", "polyreactivity (PSR sort gate)": "high polyreactivity"},
      {"sequence": "QVQLVESGGGLVQAGGSLRLSCAASGSTFERYAMGWYRQAPGKKGSWLPYADSVKGRFTISRDNAKNTVYLQMNSLKPEDTAVYYCNAERYSPTLNLDRGWEYDYWGQGTQVTVSS", "polyreactivity (PSR sort gate)": "low polyreactivity"},
      {"sequence": "QVQLVESGGGLVQAGGSLRLSCAASGSTFERYVMGWYSQAPGKARELVADINSGGSTNYADSVKGRFTISRDNAKNTVYLQMNSLKPEDTAVYYCAAKRRYYGPWSRMGYDYWGQGTQVTVSS", "polyreactivity (PSR sort gate)": "low polyreactivity"},
      {"sequence": "QVQLVESGGGLVQAGGSLRLSCAASGSTFESNAMGWNRQAPGKERDLVASISGSGGSTFYADSVKGSFTISRDNAKNTVYLQMNILKPEDTGVYYCAAYKEPYYEEYGYWGQGTQVTVSS", "polyreactivity (PSR sort gate)": "low polyreactivity"},
      {"sequence": "QVQLVESGGGLVQAGGSLRLSCAASGSTFESNAMGWYRQAPGKERELVAAISRGGNTYYADSVKGRFTISRDNAKNTVYLQMNSLKPEDTAVYYCAADGAGWLDYGYWGQGTQVTVSS", "polyreactivity (PSR sort gate)": "low polyreactivity"},
      {"sequence": "QVQLVESGGGLVQAGGSLRLSCAASGSTFESNTMGWYIQAPGKERELVAAISYSGGRTYYADSVKGRFTISRDNAKNTVYLQMNSLKPEDTAVYYCAARTFRISRMDYWGQGTQVTESS", "polyreactivity (PSR sort gate)": "high polyreactivity"},
      {"sequence": "QVQLVESGGGLVQAGGSLRLSCAASGSTFESYAMVWYRQAPGKERELVAAISRRGGRTYYADSVKGRFTISRDNAKNTVYLQMNSLKPEDTAVYYCATDSSYYGSDDYWGQGTQVTVSS", "polyreactivity (PSR sort gate)": "high polyreactivity"},
      {"sequence": "QVQLVESGGGLVQAGGSLRLSCAASGSTFEVNAMGWYRQAPGKERELVASITDGGITNYADSVKVRFTISRDNAKNTVYLQMNSLKPEDTAVYYCAAVGWYYSYYYFWGGYWGQGTQVTVSS", "polyreactivity (PSR sort gate)": "high polyreactivity"},
      {"sequence": "QVQLVESGGGLVQAGGSLRLSCAASGSTFEWNAMGWYRQAPGKERELVAAISGTGGNTYYADSVKGRFTISRYNAKNTVYLQMNSLKPEDTAVYYCNTDYGEYSSWDLQWWYIPYDYWGQGTQVTVSS", "polyreactivity (PSR sort gate)": "low polyreactivity"},
      {"sequence": "QVQLVESGGGLVQAGGSLRLSCAASGSTFEYNAMRWYRQAPGKERELVAAITWSVGSTYYADSVKGRFTISRDNAKNSVSIQMNSLKPEDTAVDYCARVPSAFARWHTYDYWGQGTQVTVSS", "polyreactivity (PSR sort gate)": "low polyreactivity"},
      {"sequence": "QVQLVESGGGLVQAGGSLRLSCAASGSTFEYYAMGWYRQAPGKERELVAAISTSGGSTYYADSVKGRFTISRDNAKNTVYLQMNSLKPEDTAVYYCNRGRRYSHKYDYWGQGTQVTVSS", "polyreactivity (PSR sort gate)": "high polyreactivity"},
      {"sequence": "QVQLVESGGGLVQAGGSLRLSCAASGSTFEYYAMGWYRQAPGKERELVAAITRRGGSTYYADSVKGRFTISRDNAKNTVYLQMNSLKPEDTAVYYCAAVPTQKSPRTHDYWGQGTQVTVSS", "polyreactivity (PSR sort gate)": "low polyreactivity"},
      {"sequence": "QVQLVESGGGLVQAGGSLRLSCAASGSTFEYYAMGWYRQAPGKERELVATITFGGGSTYYADSVKGRFTISRDNAKNTVYLQMNSLKPEDTAVYYCAADSGYLGIYGDEYSWGQGTQVTVSS", "polyreactivity (PSR sort gate)": "low polyreactivity"},
      {"sequence": "QVQLVESGGGLVQAGGSLRLSCAASGSTFEYYAMGWYRQAPGKERELVATMSIDGRTNYADSVKGRFTISRDNAKNTVYLQMNSLKPEDTAVYYCAARPYWRHRYDYWGQGTQVTVSS", "polyreactivity (PSR sort gate)": "low polyreactivity"},
      {"sequence": "QVQLVESGGGLVQAGGSLRLSCAASGSTFFANAMGWFRQAPGKAREFVAVITWGGSTYYADSVKGRFTISRDNAKNSVYLQMNSLKPEDTAVYYCNADYQPPGILYHWWRYYRGDYWGQGTQVTVSS", "polyreactivity (PSR sort gate)": "low polyreactivity"},
      {"sequence": "QVQLVESGGGLVQAGGSLRLSCAASGSTFFCYAMGWYRQAPGKERELVAAISRSGDRTYYADSVKGRFTISRDNAKNTVYLQMKSLKPEDTAVYYCAAKGFKPSDWGQGTQVTVSS", "polyreactivity (PSR sort gate)": "high polyreactivity"},
      {"sequence": "QVQLVESGGGLVQAGGSLRLSCAASGSTFFDYAMGWYRQAPGKERELVAAISRSGDTNYADSVKGRFTISRDNAKNTVYLQMNSLKPEDTAVYYCAKDWAYRRHWVGFYYWGQGTQVTVSS", "polyreactivity (PSR sort gate)": "low polyreactivity"}
    ]}
  ]
}
